Measurements taken from publication PMC3060121, “The Peroxisomal Targeting Signal 1 in sterol carrier protein 2 is autonomous and essential for receptor recognition” (BMC Biochemistry, 2011).
Each block holds one binder with its values, some of them ahead of it.

Tests used:
[1] = target: T1, human Pex5p(C) (residues 315-639) D624W (human, UniProt P50542 315-639, D624W, biotin (EZ-Link Sulfo-NHS-Biotinylation Kit, between 1 and 2 moles of biotin per mole) in the Octet RED96 assay only); assay: ITC; MicroCal VP-ITC; Pex5p(C) wild-type or mutant titrated with mSCP2 or the peptide PGNAKL; as described in ref 4; details: both partners purified
T1 construct: Made by QuikChange on the His6-GST Pex5p(C) plasmid; also called Pex5p(C) D624W

[2] = target: T2, human Pex5p(C), cargo-binding domain of Pex5p (residues 315-639), wild-type (human, UniProt P50542 315-639, biotin (EZ-Link Sulfo-NHS-Biotinylation Kit, between 1 and 2 moles of biotin per mole) in the Octet RED96 assay only); assay: as above; details: both partners purified
T2 construct: The His6-GST fusion is cleavable with TEV protease; also called Pex5p(C) WT; HsPex5p(C)

[3] = target: T3, human Pex5p(C) (residues 315-639) R608W (human, UniProt P50542 315-639, R608W, biotin (EZ-Link Sulfo-NHS-Biotinylation Kit, between 1 and 2 moles of biotin per mole) in the Octet RED96 assay only); assay: as above; details: both partners purified
T3 construct: Made by QuikChange on the His6-GST Pex5p(C) plasmid; also called Pex5p(C) R608W

[4] = target: T1, human Pex5p(C) (residues 315-639) D624W; assay: BLI; Octet RED96; biotinylated Pex5p(C) immobilised on streptavidin sensors at 20 μg/mL; PBS, 1000 rpm; association 1800 s, dissociation 1800 s; local fits, 1:1 model; details: both partners purified
[5] = target: T4, human Pex5p(C) (residues 315-639) S600W, infantile Refsum disease mutant (human, UniProt P50542 315-639, S600W, biotin (EZ-Link Sulfo-NHS-Biotinylation Kit, between 1 and 2 moles of biotin per mole)); assay: as above; details: both partners purified
T4 construct: also called Pex5p(C)S600W

[6] = target: T2, human Pex5p(C), cargo-binding domain of …; assay: as above; details: both partners purified
[7] = target: T3, human Pex5p(C) (residues 315-639) R608W; assay: as above; details: both partners purified
[8] = target: T5, Gal4DB-mSCP2 (21-143), two-hybrid fusion (human, UniProt P22307-2 21-143); assay: two-hybrid; GAL4 based, S. cerevisiae PCY2; Gal4AD-Pex5p(C) with Gal4DB-SCP2 variants; β-galactosidase activity (A420 per mg protein per min), mean of three measurements; details: partners not purified
T5 construct: sterol carrier protein 2, human, residues 21-143; numbers count on: preSCP2 of 143 residues; In pPC97 between SalI and NotI; source: yeast two-hybrid fusion (S. cerevisiae PCY2)
T5 sequence (looked up): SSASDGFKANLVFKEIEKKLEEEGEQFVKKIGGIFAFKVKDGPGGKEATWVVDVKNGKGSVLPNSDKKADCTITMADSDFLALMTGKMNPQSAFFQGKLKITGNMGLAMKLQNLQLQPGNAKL

[9] = target: T6, Gal4DB-preSCP2 (1-143), two-hybrid fusion (human, UniProt P22307-2 1-143); assay: as above; details: partners not purified
T6 construct: sterol carrier protein 2, human, residues 1-143, printed length 143; numbers count on: preSCP2 of 143 residues; In pPC97 between SalI and NotI; source: yeast two-hybrid fusion (S. cerevisiae PCY2)
T6 sequence (looked up): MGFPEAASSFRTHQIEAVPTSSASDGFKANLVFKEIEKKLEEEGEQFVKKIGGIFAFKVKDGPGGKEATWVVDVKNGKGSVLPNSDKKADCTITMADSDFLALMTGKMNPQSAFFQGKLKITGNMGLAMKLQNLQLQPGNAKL

B2: Gal4AD-Pex5p(C) (residues 315-639) R608W, two-hybrid fusion (domain or fragment)
chain: not shown
notes: also called Pex5p(C) R608W; source: yeast two-hybrid fusion (S. cerevisiae PCY2)
fold reduction of the two-hybrid interaction against wild-type Pex5p(C) [8]: 3 fold | fold reduction of the two-hybrid interaction against wild-type Pex5p(C) [9]: 3 fold

B3: PTS1 hexapeptide PGNAKL derived from the C-terminus of SCP2 (peptide)
peptide: PGNAKL
notes: C-terminal six residues of sterol carrier protein 2, human; numbers count on: preSCP2 of 143 residues; Free C-terminal carboxylate (PGNAKL-CO2-) as printed in the background; also called PGNAKL-CO2-; source: synthetic peptide (Sigma-Aldrich, > 95% purity)
Kd [1]: 763 nM | dH [1]: -13.1 kcal/mol | stoichiometry N [1]: 0.49 ± 0.01 | Kd [2]: 547 ± 6 nM | dH [2]: -10.2 kcal/mol | stoichiometry N [2]: 0.94 ± 0.02 | Kd [3]: 635 ± 25 nM | dH [3]: -12.3 kcal/mol | stoichiometry N [3]: 0.81 ± 0.01

Results, then the binder that gave them:

Kd [1]: 45 ± 8 nM | dH [1]: -13.3 kcal/mol | stoichiometry N [1]: 0.41 ± 0.08 | Kd [2]: 95 ± 21 nM | dH [2]: -10.4 kcal/mol | stoichiometry N [2]: 0.93 ± 0.03 | Kd [3]: 179 ± 19 nM | dH [3]: -17.1 kcal/mol | stoichiometry N [3]: 0.61 ± 0.06 | koff [4]: 0.00015 s⁻¹ | kon [4]: 11000 M⁻¹ s⁻¹ | koff [5]: 6e-05 s⁻¹ | kon [5]: 6500 M⁻¹ s⁻¹ | koff [6]: 5.5e-05 s⁻¹ | kon [6]: 23000 M⁻¹ s⁻¹ | koff [7]: 7.3e-05 s⁻¹ | kon [7]: 7200 M⁻¹ s⁻¹
B1: mature sterol carrier protein 2, mSCP2 (21-143) (natural protein, human, UniProt P22307-2 21-143, looked up)
chain: T5 sequence (looked up)
notes: numbers count on: preSCP2 of 143 residues; The His6-GST fusion is cleavable with TEV protease

koff [4]: 8.6e-05 s⁻¹ | kon [4]: 13000 M⁻¹ s⁻¹ | koff [5]: 5.1e-05 s⁻¹ | kon [5]: 7300 M⁻¹ s⁻¹ | koff [6]: 7.9e-05 s⁻¹ | kon [6]: 35000 M⁻¹ s⁻¹ | koff [7]: 5e-05 s⁻¹ | kon [7]: 9000 M⁻¹ s⁻¹
B4: sterol carrier protein 2 with presequence, preSCP2 (1-143) (natural protein, human, UniProt P22307-2 1-143, looked up)
chain: T6 sequence (looked up)
notes: numbers count on: preSCP2 of 143 residues; The His6-GST fusion is cleavable with TEV protease; also called full-length SCP2
